Results published in paper PMC4165444 (Biochemistry, 2014).

Molecular target: the molecule itself
Assay: crystal structure

B1: Saccharomyces cerevisiae alcohol dehydrogenase I (enzyme, UniProt P00330 1-348, looked up)
chain: MSIPETQKGVIFYESHGKLEYKDIPVPKPKANELLINVKYSGVCHTDLHAWHGDWPLPVKLPLVGGHEGAGVVVGMGENVKGWKIGDYAGIKWLNGSCMACEYCELGNESNCPHADLSGYTHDGSFQQYATADAVQAAHIPQGTDLAQVAPILCAGITVYKALKSANLMAGHWVAISGAAGGLGSLAVQYAKAMGYRVLGIDGGEGKEELFRSIGGEVFIDFTKEKDIVGAVLKATDGGAHGVINVSVSEAAIEASTRYVRANGTTVLVGMPAGAKCCSDVFNQVVKSISIVGSYVGNRADTREALDFFARGLVKSPIKVVGLSTLPEIYEKMEKGQIVGRYVVDTSK
modifications: disulfide bond between Cys-277 residues of the two subunits of a dimer
stoichiometry N: 4 subunits per oligomer
